{"source": "patent US20240343826A1", "about": "“Compositions and Methods for Targeting Cancer Stem Cells” (Seagen Inc., priority 2015, published 2024)", "molecules": {"B1": {"name": "S3F: anti-STn IgG2a antibody combining 3F1 variable domains with IgG2a constant domains; heavy chain SEQ ID NO: 5, light chain SEQ ID NO: 6 (antibody)", "heavy": "QVQLQQSDAELVKPGASVKISCKASGYTFTDHAIHWVKQKPEQGLDWIGYISPGNGDIKYNEKFKDKVTLTADKSSSTACMHLNSLTSEDSAVYFCKRSLLALDYWGQGTTLTVSSAKTTAPSVYPLAPVCGDTTGSSVTLGCLVKGYFPEPVTLTWNSGSLSSGVHTFPAVLQSDLYTLSSSVTVTSSTWPSQSITCNVAHPASSTKVDKKIEPRGPTIKPCPPCKCPAPNLLGGPSVFIFPPKIKDVLMISLSPIVTCVVVDVSEDDPDVQISWFVNNVEVHTAQTQTHREDYNSTLRVVSALPIQHQDWMSGKEFKCKVNNKDLPAPIERTISKPKGSVRAPQVYVLPPPEEEMTKKQVTLTCMVTDFMPEDIYVEWTNNGKTELNYKNTEPVLDSDGSYFMYSKLRVEKKNWVERNSYSCSVVHEGLHNHHTTKSFSRTPGK", "light": "DIVMTQSHKFMSTSVGDRVSITCKASQDVGTNIAWYQQKPGRSPKVLIYSASTRHTGVPDRFTGSGSGTDFTLTISNVQSEDLTDYFCQQYSSFPLTFGVGTKLELKRADAAPTVSIFPPSSEQLTSGGASVVCFLNNFYPKDINVKWKIDGSERQNGVLNSWTDQDSKDSTYSMSSTLTLTKDEYERHNSYTCEATHKTSTSPIVKSFNRNEC"}}, "key": {"OV90 cells": {"tested_on": "OV90 cells", "experiment": "MTT cell viability assay, antibody and chemotherapeutic agent treatment", "assay_type": "cell-based, human", "conditions": "72 to 144 hours, S3F 0.033 nM-500 nM; for cell viability (MTT assay): STn+CD133+ OV90 and CSC sub-fractions, normalized to untreated control", "procedure": "STn+CD133+OV90 and CSC sub-fractions were treated with unconjugated anti-STn antibody S3F [0.033 nM-500 nM] or with different concentrations of chemotherapeutic agents paclitaxel and/or carboplatin. OV90 cells were cultured for 72 to 144 hours with the indicated concentrations and cell viability was analyzed by MTT assay (FIG. 2). All values were normalized to the untreated control."}, "CSC tumors": {"tested_on": "CSC tumors", "experiment": "Anti-CSC activity in vivo, tumors in NOD/SCID mice", "procedure": "The growth conditions of CSC subfractions in NOD/SCID mice is established and analyzed. Anti-STn antibodies are administered to mice as conjugates with chemotherapy and treated mice are tested for toxicity and efficacy through mouse observations and weights.\nAn equivalent amount of serially-diluted positive or negative subfraction cells (i.e., 1×10^5, 1×10^4, and 1×10^3/mouse; 2-8 mice/group) are injected subcutaneously (s.c.) into NOD/SCID mice, to compare their potential to generate tumors. Following injection of tumor cells, the mice are monitored daily for evidence of tumor formation and general health.\nFor treatment, tumors may be generated in mice from up to four sources: 1) primary ovarian tumors; 2) xenograft tumors previously established in NOD/SCID mice; 3) cryopreserved xenograft tumor tissue; or 4) human ovarian cancer cell lines or isolated cell line subfractions based on CD133/STn expression. For each tumor type, once a sufficient number of mice have tumors ranging from 200-300 mm^3 in volume, the mice are randomized into 4 groups (n=8-14 mice/group) such that the mean group tumor volumes are essentially equivalent. […]\nTumors are then measured twice weekly with calipers [tumor volume=(Lmm×Wmm×[…])/2]. […]"}, "[1]": {"tested_on": "STn in ovarian cancer tissue", "experiment": "Immunohistochemical staining of ovarian cancer tissue sections", "assay_type": "binding", "conditions": "S3F as primary antibody; peroxidase-based secondary detection; compared to normal IgG and no primary antibody", "description": "Tissue sections from ovarian cancer tissue were subjected to immunohistochemical staining to identify cells expressing STn using S3F antibody as a primary antibody. Bound antibody was detected using a peroxidase-based secondary detection system."}}}
{"molecule": "N.N.O=C([O-])C1(C(=O)[O-])CCC1.[Pt+2]", "note": "[carboplatin, reference compound]", "values": [{"measurement": "cell viability (MTT assay)", "setting": "OV90 cells", "value": "Cell viability was reduced"}]}
{"molecule": "CC(=O)O[C@H]1C(=O)[C@@]2(C)[C@H]([C@H](OC(=O)c3ccccc3)[C@]3(O)C[C@H](OC(=O)[C@H](O)[C@@H](NC(=O)c4ccccc4)c4ccccc4)C(C)=C1C3(C)C)[C@]1(OC(C)=O)CO[C@@H]1C[C@@H]2O", "note": "[paclitaxel, reference compound]", "values": [{"measurement": "cell viability (MTT assay)", "setting": "OV90 cells", "value": "Cell viability was reduced"}]}
{"molecule": "B1", "values": [{"measurement": "dose dependence of effect on cell viability", "setting": "OV90 cells; OV90 cells", "value": "most effective at higher doses tested"}, {"measurement": "cell viability (MTT assay)", "setting": "OV90 cells", "value": "Cell viability was reduced"}, {"measurement": "efficacy in combination with standard chemotherapy agents used for ovarian cancer", "setting": "CSC tumors", "value": "increases the efficacy of the antibody"}, {"measurement": "growth of CSC tumors", "setting": "CSC tumors; i.p. once weekly", "value": "capable of delaying the growth of or eradicating CSC tumors"}, {"measurement": "immunohistochemical staining", "setting": "[1]", "value": "Numerous cells showed positive staining"}]}
